Results on two molecules are retold here after patent US20150344535A1 (UNIVERSITY OF QUEENSLAND, published 2015).

Test [1] concerns the target T1, p75^Δ-JUX (UniProt P07174 30-425).
T1 construct: whole, on cells; In HEK293 lysate in the co-immunoprecipitation, on HEK293 cells in the NGF-FITC assays; also called p75^NTR with an intracellular juxtamembrane deletion
T1 sequence (looked up): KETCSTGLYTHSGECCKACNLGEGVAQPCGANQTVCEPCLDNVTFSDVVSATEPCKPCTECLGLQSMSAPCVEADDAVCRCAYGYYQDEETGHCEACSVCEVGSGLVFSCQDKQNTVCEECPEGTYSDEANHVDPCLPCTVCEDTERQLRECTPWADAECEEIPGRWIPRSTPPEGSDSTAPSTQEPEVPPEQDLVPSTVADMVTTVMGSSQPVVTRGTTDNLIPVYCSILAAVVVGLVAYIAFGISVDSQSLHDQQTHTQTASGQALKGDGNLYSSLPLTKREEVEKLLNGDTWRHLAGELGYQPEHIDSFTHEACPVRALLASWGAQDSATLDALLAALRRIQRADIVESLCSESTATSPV
In words: flow cytometry, 26 nM NGF-FITC 60 min on ice, transfected HEK293 cells. Background: Flow cytometry measures light scatter and fluorescence of single cells or particles in a stream.
Method: (§1) To investigate NGF binding, PC12 or transfected HEK293 cells were serum starved for 4 hours, harvested, washed with Dulbecco's Modified Eagle Medium (DMEM), and counted. When used, c29 or scrambled peptide were added to cultures for the third hour of the serum starvation procedure.

Test [2] concerns the target T2, p75^FL on transfected HEK293 cells (UniProt P07174 30-425).
T2 construct: whole, on cells; also called p75^NTR
T2 sequence (looked up): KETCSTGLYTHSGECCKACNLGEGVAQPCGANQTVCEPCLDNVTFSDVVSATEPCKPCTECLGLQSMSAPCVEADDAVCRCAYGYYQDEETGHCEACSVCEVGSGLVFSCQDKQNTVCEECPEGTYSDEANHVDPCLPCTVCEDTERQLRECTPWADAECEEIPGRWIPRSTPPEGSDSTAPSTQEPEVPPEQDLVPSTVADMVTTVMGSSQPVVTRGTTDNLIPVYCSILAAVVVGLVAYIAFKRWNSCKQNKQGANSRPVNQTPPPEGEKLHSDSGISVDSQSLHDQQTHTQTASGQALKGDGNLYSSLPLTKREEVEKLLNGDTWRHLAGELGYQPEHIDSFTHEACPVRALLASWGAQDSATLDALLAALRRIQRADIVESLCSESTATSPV
The test is described as above.
Method: as §1

In test [3] the target is T3, TrkAK538A.
T3 construct: whole, on cells; On transfected HEK293 cells in flow cytometry; in HEK293 lysates in the co-immunoprecipitations; also called TrkK538A
The description is as above.
Method: as §1

The target in test [4] is T3, TrkAK538A. In words: real-time flow cytometry, Hill-Slope association curve, TrkAK538A-expressing HEK293 cells pre-treated with c29.
For test [5], the target named is T1, p75^Δ-JUX. As to the kind of experiment: flow cytometry competition against 26 nM NGF-FITC, transfected HEK293 cells.
Method: as §1
Test [6] addresses T2, p75^FL on transfected HEK293 cells. The test is described as above.
Method: as §1
The target in test [7] is T3, TrkAK538A. Described as above.
Method: as §1
Test [8] has as its target T4, TrkAK538A and p75^FL co-expressed on HEK293 cells (UniProt P07174 30-425).
T4 construct: whole, on cells; Two receptors on the same cells; also called TrkAK538A + p75^FL
As to the kind of experiment: flow cytometry competition against 26 nM NGF-FITC, co-transfected HEK293 cells.
Method: as §1

The target in test [9] is T5, TrkAK538A and p75^Δ-JUX co-expressed on HEK293 cells (UniProt P07174 30-425).
T5 construct: whole, on cells; Two receptors on the same cells; also called TrkAK538A + p75^ΔJUX
Described as above.
Method: as §1

B1: NGF-FITC (ligand, mouse, UniProt P01139 122-239, looked up)
chain: SSTHPVFHMGEFSVCDSVSVWVGDKTTATDIKGKEVTVLAEVNINNSVFRQYFFETKCRASNPVESGCRGIDSKHWNSYCTTTHTFVKALTTDEKQAAWRFIRIDTACVCVLSRKATR
modifications: conjugated to FITC
notes: also called fluorescently labelled NGF; FITC-NGF
Regarding B1, the “% of cells with fluorescence intensity above background” value (with p75^Δ-JUX [1]; in [2]; with TrkAK538A [3]) was 80% in each case. Also, in the test with TrkAK538A [4], the “fold faster association rate against untreated TrkAK538A-expressing cells” value was roughly 3 fold.

B2: unlabelled NGF (ligand, mouse, UniProt P01139 122-239, looked up)
chain: B1 chain
notes: also called unlabeled NGF
On to B2, for which the “excess of unlabelled NGF required for NGF-FITC binding to fall to background fluorescence” value (with p75^Δ-JUX [5]; in test [6]; in the test with TrkAK538A [7]; in test [8]; in test [9]) was 1000 fold throughout.
